# T1: PCNA (Pol30) immunoprecipitated in the co-IP of Figure 2C (S. cerevisiae, UniProt P15873 1-258)
# T1 construct: Pol30 (PCNA), S. cerevisiae; homotrimeric clamp of three copies of Pol30; No tag is named for PCNA in this experiment; the methods precipitate with an anti-PCNA antibody; source: S. cerevisiae, in lysate
# T1 sequence (looked up): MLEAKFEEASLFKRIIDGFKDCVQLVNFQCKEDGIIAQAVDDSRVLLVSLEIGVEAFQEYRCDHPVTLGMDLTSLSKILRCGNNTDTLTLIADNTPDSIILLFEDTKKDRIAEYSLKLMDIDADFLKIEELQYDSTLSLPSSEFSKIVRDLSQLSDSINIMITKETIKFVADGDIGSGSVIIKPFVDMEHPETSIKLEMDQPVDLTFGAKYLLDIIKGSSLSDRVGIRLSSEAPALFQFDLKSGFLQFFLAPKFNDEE
# Molecular target: T1, PCNA (Pol30) immunoprecipitated in the …
# Assay: co-IP; PCNA immunoprecipitated from yeast extract (methods: 2 μg anti-PCNA antibody, overnight at 4 °C, washes with lysis buffer at 220 mM NaCl); level of FLAG-tagged Pol3 or Pol3-01 co-IPed measured (Figure 2C)
# Details: partners not purified
binder,measurement,value
"FLAG-tagged Pol3-01 (Pol3-01-Flag) of the co-IP of Figure 2C (natural protein, S. cerevisiae, UniProt P15436 1-1097, looked up, Pol3, catalytic subunit of DNA polymerase delta, S. cerevisiae, pol3-01 allele (D321A, E323A); the tags may be swapped in the text; source: S. cerevisiae, in lysate) MSEKRSLPMVDVKIDDEDTPQLEKKIKRQSIDHGVGSEPVSTIEIIPSDSFRKYNSQGFKAKDTDLMGTQLESTFEQELSQMEHDMADQEEHDLSSFERKKLPTDFDPSLYDISFQQIDAEQSVLNGIKDENTSTVVRFFGVTSEGHSVLCNVTGFKNYLYVPAPNSSDANDQEQINKFVHYLNETFDHAIDSIEVVSKQSIWGYSGDTKLPFWKIYVTYPHMVNKLRTAFERGHLSFNSWFSNGTTTYDNIAYTLRLMVDCGIVGMSWITLPKGKYSMIEPNNRVSSCQLEVSINYRNLIAHPAEGDWSHTAPLRIMSFAIACAGRIGVFPEPEYDPVIQIANVVSIAGAKKPFIRNVFTLNTCSPITGSMIFSHATEEEMLSNWRNFIIKVDPDVIIGYNTTNFDIPYLLNRAKALKVNDFPYFGRLKTVKQEIKESVFSSKAYGTRETKNVNIDGRLQLDLLQFIQREYKLRSYTLNAVSAHFLGEQKEDVHYSIISDLQNGDSETRRRLAVYCLKDAYLPLRLMEKLMALVNYTEMARVTGVPFSYLLARGQQIKVVSQLFRKCLEIDTVIPNMQSQASDDQYEGATVIEPIRGYYDVPIATLDFNSLYPSIMMAHNLCYTTLCNKATVERLNLKIDEDYVITPNGDYFVTTKRRRGILPIILDELISARKRAKKDLRDEKDPFKRDVLNGRQLALKISANSVYGFTGATVGKLPCLAISSSVTAYGRTMILKTKTAVQEKYCIKNGYKHDAVVVYGDTDSVMVKFGTTDLKEAMDLGTEAAKYVSTLFKHPINLEFEKAYFPYLLINKKRYAGLFWTNPDKFDKLDQKGLASVRRDSCSLVSIVMNKVLKKILIERNVDGALAFVRETINDILHNRVDISKLIISKTLAPNYTNPQPHAVLAERMKRREGVGPNVGDRVDYVIIGGNDKLYNRAEDPLFVLENNIQVDSRYYLTNQLQNPIISIVAPIIGDKQANGMFVVKSIKINTGSQKGGLMSFIKKVEACKSCKGPLRKGEGPLCSNCLARSGELYIKALYDVRDLEEKYSRLWTQCQRCAGNLHSEVLCSNKNCDIFYMRVKVKKELQEKVEQLSKW",fold reduction in co-IP against Pol3,4 fold

# Reference: publication PMC9957047, “A Role for the Interactions between Polδ and PCNA Revealed by Analysis of pol3-01 Yeast Mutants” (Genes, 2023)
